Experimental data from patent US20230212266A1 (FRED HUTCHINSON CANCER CENTER, published 2023).
Numbering of substitutions follows the chain as printed.

Tests used:
[1] = molecular target: T1, SARS-CoV-2 receptor binding domain (RBD) (SARS-CoV-2, UniProt P0DTC2 319-591); experiment: BLI; mAb loaded on anti-human Fc probe, dipped in antigen
[2] = molecular target: T1, SARS-CoV-2 receptor binding domain (RBD); experiment: BLI: mAb on anti-human Fc probe, dipped in the antigen
[3] = molecular target: T1, SARS-CoV-2 receptor binding domain (RBD); experiment: as above; remark: listed apart in the source
[4] = molecular target: T1, SARS-CoV-2 receptor binding domain (RBD); experiment: BLI, mAb on anti-human Fc probe, antigen in solution
[5] = molecular target: T1, SARS-CoV-2 receptor binding domain (RBD); experiment: BLI: mAb on anti-human Fc probe, dipped in the antigen; remark: listed apart in the source
[6] = molecular target: T1, SARS-CoV-2 receptor binding domain (RBD); experiment: as above; remark: listed apart in the source
[7] = molecular target: T1, SARS-CoV-2 receptor binding domain (RBD); experiment: as above; remark: listed apart in the source
[8] = molecular target: T1, SARS-CoV-2 receptor binding domain (RBD); experiment: BLI, mAb on anti-human Fc probe, antigen in solution; remark: listed apart in the source
[9] = molecular target: T1, SARS-CoV-2 receptor binding domain (RBD); experiment: BLI: mAb on anti-human Fc probe, dipped in the antigen; remark: listed apart in the source
[10] = molecular target: T1, SARS-CoV-2 receptor binding domain (RBD); experiment: as above; remark: listed apart in the source
[11] = molecular target: T1, SARS-CoV-2 receptor binding domain (RBD); experiment: as above; remark: listed apart in the source
[12] = molecular target: T1, SARS-CoV-2 receptor binding domain (RBD); experiment: as above; remark: listed apart in the source

B1: CV2-71 (antibody, V domains shown)
VH: EVQLLESGGGLGQPGGSLRLSCAASGFTFSNYAMSWVRQAPGKGLEWVSVISGSGGSTYYADSVKGRFTISRDNSKNTLYLQMNSLRAEDTAVYYCAKAGAVGYYDSNGYYYDVDYYYGMDVWGQGTTVTVSS
VL: QSVLTQPPSVSGAPGQRVTISCTGSSSNIGAGYDVHWYQQLPGTAPKLLIYGNSNRPSGVPDRFSGSKSGTSASLAITGLQAEDEADYYCQSYDSSLSGYVFGTGTKVTVL
binding result [1]: binds

B2: CV43 (antibody, V domains shown)
VH: QVQLVESGGGVVQPGRSLRLSCAASGFTFSSYAMHWVRQAPGKGLEWVAVISYDGSNKYYADSVKGRFTISRDNSKNTLYLQMNSLRAEDTAVYYCARVTVVHFDYWGQGTLVTVSS
VL: NFMLTQPHSVSESPGKTVTISCTGSSGSIASNYVQWYQQRPGSAPTTVIYEDNQRPSGVPDRFSGSIDSSSNSASLTISGLKTEDEADYYCQSYDSSNWVFGGGTKLTVL
binding result [1]: binds

B3: CV30 (antibody, V domains shown)
VH: EVQLVESGGGLIQPGGSLRLSCAASGVIVSSNYMSWVRQAPGKGLEWVSVIYSGGSTYYADSVKGRFTISRDNSKNTLYLQMNSLRAEDTAVYYCARDLDVSGGMDVWGQGTTVTVSS
VL: not shown
binding result [1]: binds

B4: CV2-7 (antibody, V domains shown)
VH: EVQLVQSGAEVKKPGESLKISCKGSGNSFTSYWIGWVRQMPGKGLEWMGIIYPGDSDTRYSPSFQGQVTISADKSISTAYLQWSSLKASDTAMYYCARHRNYDILTGYRYYFDYWGQGTLVTVSS
VL: not shown
binding result [1]: binds

B5: CV2-41 (antibody, V domains shown)
VH: QVQLQQWGAGLLKPSETLSLTCAVYGGSFSGYYWSWIRQPPGKGLEWIGEINHSGSTNYNPSLKSRVTISVDTSTNQFSLKLSSVTAADTAVYYCARRVHYDILTGFYGGALITRAFDIWGQGTMVTVSS
VL: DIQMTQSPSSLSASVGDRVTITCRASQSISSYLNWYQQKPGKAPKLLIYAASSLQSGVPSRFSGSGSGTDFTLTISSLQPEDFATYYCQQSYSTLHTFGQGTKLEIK
binding result [1]: binds

B6: CV2-65 (antibody, V domains shown)
VH: QVQLQESGPGLVKPSETLSLTCTVSGGSISSYYWSWIRQPAGKGLEWIGRIYTSGSTNYNPSLKSRVTMSVDTSKNQFSLKLSSVTAADTAVYYCAREDSYGSGSTGAFDIWGQGTMVTVSS
VL: SYELTQPPSVSVSPGQTARITCSGDALPKQYAYWYQQKPGQAPVLVIYKDSERPSGIPERFSGSSSGTTVTLTISGVQAEDEADYYCQSADSSGTYVFGTGTKVTVL
binding result [1]: binds

B7: CV2-48 (antibody, V domains shown)
VH: QLQLQESGPGLVKPSETLSLTCTVSGGSISSSSYYWGWIRQPPGKGLEWIGNIYYSGITYYNPSLKSRVTISVDTSKNQFSLKLSSVTAADTAVYYCARQLWGYYDSSGYYAFDIWGQGTMVTVSS
VL: QSALTQPASVSGSPGQSITISCTGTSSDVGSYNLVSWYQQHPGKAPKLMIYEGSKRPSGVSNRFSGSKSGNTASLTISGLQAEDEAAYYCCSYVGSSTYVVFGGGTKLTVL
binding result [2]: binds

B8: CV2-52 (antibody, V domains shown)
VH: QVQLVESGGGVVQPGRSLRLSCAASGFTFSSYAMHWVRQAPGKGLEWVAVISYDGINKYYADSVKGRFTISRDSSKNTLYLQMNSLRAEDTAVYYCARGGVGYQLLFGNDWFDPWGQGTLVTVSS
VL: QSALTQPASVSGSPGQSITISCTGTSSDVGGYNYVSWYQQHPGKAPKLMIYEVSNRPSGVSNRFSGSKSGNTASLTISGLQAEDESDYYCSSYTTSSTLYVFGTGTKVTVL
binding result [3]: no binding

B9: CV11 (antibody, V domains shown)
VH: QVQLQESGPGLVKPSQTLSLTCTVSGGSISSGGYYWSWIRQHPGKGLEWIGYIYYSGSTYYNPSLKSRVTISVDTSKNQFSLKLSSVTAADTAVYYCARETTGHFDYWGQGTLVTVSS
VL: EIVLTQSPATLSLSPGERATLSCRASQSVSSYLAWYQQKPGQAPRLLIYDASNRATGIPARFSGSGSGTDFTLTISSLEPEDFAVYYCQQRSNWPPIFTFGPGTKVDIK
binding result [4]: no binding

B10: CV2-57 (antibody, V domains shown)
VH: QVQLVQSGAEVKKPGASVKVSCKASGYNFISYGISWVRQAPGQGLEWMGWISAYNGNTNYAQKLQGRVTMTTDTSTSTAYMELRSLRSDDTAVYYCARVRIFGVVIIVDTAMVLDYWGQGTLVTVSS
VL: B9 VL with I97R, F98L, P102G, D107E
binding result [5]: no binding

B11: CV2-53 (antibody, V domains shown)
VH: QVQLVQSGAEVKKPGSSVKVSCKASGGTFTSYAITWVRQAPGQGLEWMGGIIPIFGTANYAQKFQGRVTITADESTSTAYMELSSLRSEDTAVYYCARVGAYDSSGYYQDLWGRGTLVTVSS
VL: B9 VL with I97V, F98I, P102Q, K105R, V106L, D107E
binding result [6]: no binding

B12: CV2-54 (antibody, V domains shown)
VH: B11 VH with T30S, A33T, T35S, K63N, G100S, A101Y, Q109T, L111Y, R114Q
VL: B9 VL with Y32F, S76N, I97E, F98Y, P102Q, V106L, D107E
binding result [7]: no binding

B13: CV2-66 (antibody, V domains shown)
VH: EVQLVESGGGLVQPGRSLRLSCTASGFTFGDYAMSWFRQAPGKGLEWVGFIRSKAYGGTTEYAASVKGRFTISRDDSKSIAYLQMNSLKTEDTAVYYCTRVHHCSGGSCYGYYFDYWGQGTLVTVSS
VL: EIVMTQSPATLSVSPGERATLSCRASQSVSSNLAWYQQKPGQAPRLLIYGASTRATGIPARFSGSGSGTEFTLTISSLQSEDFAVYYCQQYNNWVTFGGGTKVEIK
binding result [1]: binds

B14: CV1 (antibody, V domains shown)
VH: QVQLQESGPGLVKPSETLSLTCTVSGYSISSGYYWGWIRQPPGKGLEWIGSIYHSGSTYYNPSLKSRVTISVDTSKNQFSLKLSSVTAADTAVYYCARTPLSLRLRYNWYFDLWGRGTLVTVSS
VL: not shown
notes: expressed as IgG
binding result [8]: no binding

B15: CV2-75 (antibody, V domains shown)
VH: QVQLQESGPGLVKPSETLSLTCTVSGGSISSYYWSWIRQPPGKGLEWIGYVYYSGSTNYNPSLKSRVTISVDTSKNEFSLKLSSVTAADTAVYYCASSQRPDGNLYYFDYWGQGTLVTVSS
VL: SYVLTQPPSVSVAPGQTARITCGGNNIGSKTVHWYQQKPGQAPVLVVYDDSDRPSGIPERFSGSNSGNTATLTISRVEAGDEADYYCQVWDSSSDHYVFGTGTKVTVL
binding result [1]: binds

B16: CV2-56 (antibody, V domains shown)
VH: QVQLVESGGGVVQPGNSLRLSCVASGFKFSSSAMHWVRQAPGKGLEWVAIIWFHGNTKFYGDFVKGRFTVSRDNSNNTLHLQMNSLRAEDTAVYHCARASSDYGGAFDIWGQGTMVTVSS
VL: EIVMTQSPATLSVSLGERATLSCRASQSVTSSLAWYQHKPGQAPRLLIYGASTRATGIPARFSGSGSGTEFTLTISSLQSEDFAVYFCQQYNNWPPWTFGQGTKVEVT
binding result [9]: no binding

B17: CV2-58 (antibody, V domains shown)
VH: QVQLVQSGAEVKKPGSSVKVSCKASGGTFSSYAISWVRQAPGQGLEWMGRIIPILDITNYAQKFQGRVTITADKSTSTAYMELSSLRSEDTAVYYCARGLWRSSIAGLHVPYGMDVWGQGTTVTVSS
VL: QSVLTQPPSVSAAPGQKVTISCSGSSSNIGNNYVSWYQQLPGTAPQLLIYDNNKRPSRIPDRFSGSKSGTSATLGITGLQTGDEAVYYCGTWDSSLSAVVFGGGTKLTVL
binding result [10]: no binding

B18: CV2-59 (antibody, V domains shown)
VH: QVQLVQSGAEVKKPGASVKVSCKVSGYTLTELSMHWVRQAPGKGLEWMGGFDPEDGETIYAQKFQGRVTMTEDTSTDTAYMELSSLRSEDTAVYYCATGPTVTTVTNWFDPWGQGTLVTVSS
VL: B17 VL with Q46K, R58G, V86D, V99E, G103T, L107V
binding result [11]: no binding

B19: CV2-60 (antibody, V domains shown)
VH: B10 VH
VL: B17 VL with Q46K, D51E, R58G, V86D, V99G
binding result [12]: no binding

B20: CV5 (antibody, V domains shown)
VH: QVQLVQSGAEVKKPGASVKVTCKASGYTFTSYYLHWVRQAPGQGLEWMGIINPSGGTTSYAQKFQGRVTMTRDTSTSTVYMELSSLRSEDTAVYYCARAGRRYSSSDDGAFDIWGQGTMVTVSS
VL: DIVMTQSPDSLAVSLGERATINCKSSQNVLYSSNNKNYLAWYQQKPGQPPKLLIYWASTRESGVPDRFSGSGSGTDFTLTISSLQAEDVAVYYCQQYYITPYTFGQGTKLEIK
binding result [1]: binds
